Earlier results in article PMC3157396, “Molecular Basis for the Recognition of Adenomatous Polyposis Coli by the Discs Large 1 Protein” (PLoS ONE, 2011).

Tested on: PDZ1 and PDZ2 domains of PSD-95
Description: The 3D structures of the three PDZ domains of DLG1 have been determined in the free forms [13]–[15]. They share very similar structures, and the ligand binding pockets are also conserved. […] The residues in the β2/β3 loop ...

B1: Kv1.4 potassium channel: Kv1.4 potassium channel (protein, UniProt P22459 1-653, looked up)
Potassium voltage-gated …: MEVAMVSAESSGCNSHMPYGYAAQARARERERLAHSRAAAAAAVAAATAAVEGSGGSGGGSHHHHQSRGACTSHDPQSSRGSRRRRRQRSEKKKAHYRQSSFPHCSDLMPSGSEEKILRELSEEEEDEEEEEEEEEEGRFYYSEDDHGDECSYTDLLPQDEGGGGYSSVRYSDCCERVVINVSGLRFETQMKTLAQFPETLLGDPEKRTQYFDPLRNEYFFDRNRPSFDAILYYYQSGGRLKRPVNVPFDIFTEEVKFYQLGEEALLKFREDEGFVREEEDRALPENEFKKQIWLLFEYPESSSPARGIAIVSVLVILISIVIFCLETLPEFRDDRDLVMALSAGGHGGLLNDTSAPHLENSGHTIFNDPFFIVETVCIVWFSFEFVVRCFACPSQALFFKNIMNIIDIVSILPYFITLGTDLAQQQGGGNGQQQQAMSFAILRIIRLVRVFRIFKLSRHSKGLQILGHTLRASMRELGLLIFFLFIGVILFSSAVYFAEADEPTTHFQSIPDAFWWAVVTMTTVGYGDMKPITVGGKIVGSLCAIAGVLTIALPVPVIVSNFNYFYHRETENEEQTQLTQNAVSCPYLPSNLLKKFRSSTSSSLGDKSEYLEMEEGVKESLCAKEEKCQGKGDDSETDKNNCSNAKAVETDV
change of binding affinity on deletion of six residues from the β2/β3 loops (in words): decreases the binding affinity
